# Reference: publication PMC6860926 (Journal of the American Chemical Society, 2019)
# Target: human GLP-1 receptor (GLP-1R), stably expressed in FlpIn CHO cells (human) (UniProt P43220)
# UniProt P43220, sequence (P43220 24-463): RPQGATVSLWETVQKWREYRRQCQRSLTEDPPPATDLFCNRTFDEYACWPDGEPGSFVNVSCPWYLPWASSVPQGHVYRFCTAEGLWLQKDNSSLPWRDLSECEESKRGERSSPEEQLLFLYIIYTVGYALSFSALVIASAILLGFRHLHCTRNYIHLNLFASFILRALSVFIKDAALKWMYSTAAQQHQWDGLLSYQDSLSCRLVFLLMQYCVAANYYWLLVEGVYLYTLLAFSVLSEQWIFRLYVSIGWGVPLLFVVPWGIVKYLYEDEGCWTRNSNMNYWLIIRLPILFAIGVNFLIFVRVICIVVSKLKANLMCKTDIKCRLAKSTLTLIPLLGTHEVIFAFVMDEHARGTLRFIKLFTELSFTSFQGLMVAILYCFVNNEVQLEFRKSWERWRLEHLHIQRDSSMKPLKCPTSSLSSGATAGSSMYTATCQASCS
substance,measurement,value
glucagon-like peptide-1 [GLP-1(7–37)],"cAMP accumulation in FlpIn CHO cells stably expressing human GLP-1R, pEC50",10.8
